Assay results published in US20070077617.
Residue numbers refer to the chain shown, from its start. Numbers in names are those of the source.

B1: OmpT protease variant OmpT D97L (protein)
chain: STETLSFTPDNINADISLGTLSGKTKERVYLAEEGGRKVSQLDWKFNNAAIIKGAINWDLMPQISIGAAGWTTLGSRGGNMVDQDWMDSSNPGTWTLESRHPDTQLNYANEFDLNIKGWLLNEPNYRLGLMAGYQESRYSFTARGGSYIYSSEEGFRDDIGSFPNGERAIGYKQRFKMPYIGLTGSYRYEDFELGGTFKYSGWVESSDNDEHYDPGKRITYRSKVKDQNYYSVAVNAGYYVTPNAKVYVEGAWNRVTNKKGNTSLYDHNNNTSDYSKNGAGIENYNFITTAGLKYTF
B2: OmpT protease variant OmpT D97R (protein)
chain: B1 chain with L97R
B3: OmpT protease variant OmpT D97K (protein)
chain: B1 chain with L97K

Tests used:
[1] = biological target: human adrenocorticotropic hormone(1-24) fusion protein PAC
Sequence of human adrenocorticotropic hormone(1-24) fusion protein PAC (chain, as listed by the source): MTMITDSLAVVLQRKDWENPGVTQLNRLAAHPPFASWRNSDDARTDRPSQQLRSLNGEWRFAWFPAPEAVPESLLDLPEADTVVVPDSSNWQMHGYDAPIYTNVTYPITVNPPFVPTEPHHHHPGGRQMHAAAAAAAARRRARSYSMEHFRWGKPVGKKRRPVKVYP

Sequence of fusion protein PRI (chain, as listed by the source): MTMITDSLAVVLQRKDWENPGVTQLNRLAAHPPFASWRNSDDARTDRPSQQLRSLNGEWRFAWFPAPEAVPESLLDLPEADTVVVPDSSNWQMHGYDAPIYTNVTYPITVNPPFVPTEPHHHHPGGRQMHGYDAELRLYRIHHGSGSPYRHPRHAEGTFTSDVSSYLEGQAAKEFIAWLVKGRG
Sequence of fusion protein PRK (chain, as listed by the source): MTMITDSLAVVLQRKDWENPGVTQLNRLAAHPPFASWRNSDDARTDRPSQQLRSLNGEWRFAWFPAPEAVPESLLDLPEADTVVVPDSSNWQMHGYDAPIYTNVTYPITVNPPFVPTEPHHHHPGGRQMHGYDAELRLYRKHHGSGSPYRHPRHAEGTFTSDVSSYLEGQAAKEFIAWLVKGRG
Sequence of fusion protein PRQ (chain, as listed by the source): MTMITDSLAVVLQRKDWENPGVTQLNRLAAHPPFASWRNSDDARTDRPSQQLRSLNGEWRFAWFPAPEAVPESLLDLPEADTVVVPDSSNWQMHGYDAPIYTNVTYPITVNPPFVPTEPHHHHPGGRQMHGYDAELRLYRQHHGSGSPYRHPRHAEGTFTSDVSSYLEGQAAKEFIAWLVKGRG
Sequence of fusion protein PRW (chain, as listed by the source): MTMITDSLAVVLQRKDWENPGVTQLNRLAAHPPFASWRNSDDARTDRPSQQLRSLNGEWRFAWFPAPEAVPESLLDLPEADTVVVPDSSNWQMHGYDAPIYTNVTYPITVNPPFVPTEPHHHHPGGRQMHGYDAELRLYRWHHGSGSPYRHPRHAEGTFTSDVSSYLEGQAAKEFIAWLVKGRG
Sequence of fusion protein PRR (chain, as listed by the source): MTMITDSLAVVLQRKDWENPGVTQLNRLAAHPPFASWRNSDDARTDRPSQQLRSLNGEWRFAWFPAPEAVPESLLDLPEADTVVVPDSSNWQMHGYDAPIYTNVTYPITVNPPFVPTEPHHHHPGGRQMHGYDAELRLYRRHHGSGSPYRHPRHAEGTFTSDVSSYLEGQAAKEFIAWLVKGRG
Sequence of fusion protein PRA (chain, as listed by the source): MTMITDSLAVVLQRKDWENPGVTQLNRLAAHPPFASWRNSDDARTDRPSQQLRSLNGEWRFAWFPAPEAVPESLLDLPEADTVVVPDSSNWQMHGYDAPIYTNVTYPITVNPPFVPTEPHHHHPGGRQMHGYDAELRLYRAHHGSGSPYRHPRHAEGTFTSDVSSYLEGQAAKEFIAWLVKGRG
Sequence of fusion protein PRD (chain, as listed by the source): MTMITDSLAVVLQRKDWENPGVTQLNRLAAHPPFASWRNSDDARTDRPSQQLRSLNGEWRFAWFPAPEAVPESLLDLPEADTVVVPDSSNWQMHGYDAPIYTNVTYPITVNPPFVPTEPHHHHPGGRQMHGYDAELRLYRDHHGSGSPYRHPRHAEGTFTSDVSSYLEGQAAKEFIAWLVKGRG
Sequence of fusion protein PRN (chain, as listed by the source): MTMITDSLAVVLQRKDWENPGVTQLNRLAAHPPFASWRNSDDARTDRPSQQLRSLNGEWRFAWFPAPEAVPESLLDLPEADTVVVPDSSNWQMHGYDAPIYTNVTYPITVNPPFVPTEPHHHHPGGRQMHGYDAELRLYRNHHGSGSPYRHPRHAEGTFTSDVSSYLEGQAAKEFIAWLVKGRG
Sequence of fusion protein PRM (chain, as listed by the source): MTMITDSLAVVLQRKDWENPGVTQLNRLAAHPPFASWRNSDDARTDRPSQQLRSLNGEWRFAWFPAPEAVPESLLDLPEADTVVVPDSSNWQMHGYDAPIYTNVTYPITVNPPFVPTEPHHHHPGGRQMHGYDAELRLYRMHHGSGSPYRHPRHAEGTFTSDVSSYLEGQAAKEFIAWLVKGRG
Sequence of fusion protein PRY (chain, as listed by the source): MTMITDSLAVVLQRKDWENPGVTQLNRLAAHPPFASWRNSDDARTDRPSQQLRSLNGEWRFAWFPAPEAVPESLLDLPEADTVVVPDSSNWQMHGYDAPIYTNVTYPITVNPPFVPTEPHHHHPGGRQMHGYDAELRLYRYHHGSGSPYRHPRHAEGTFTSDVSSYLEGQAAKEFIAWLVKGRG
Sequence of fusion protein PRC (chain, as listed by the source): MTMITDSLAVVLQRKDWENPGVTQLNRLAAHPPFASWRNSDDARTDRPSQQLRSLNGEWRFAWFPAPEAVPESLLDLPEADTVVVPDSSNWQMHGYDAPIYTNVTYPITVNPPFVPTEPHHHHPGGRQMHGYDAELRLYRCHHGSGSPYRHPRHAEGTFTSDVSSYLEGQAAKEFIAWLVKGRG
Sequence of fusion protein PRE (chain, as listed by the source): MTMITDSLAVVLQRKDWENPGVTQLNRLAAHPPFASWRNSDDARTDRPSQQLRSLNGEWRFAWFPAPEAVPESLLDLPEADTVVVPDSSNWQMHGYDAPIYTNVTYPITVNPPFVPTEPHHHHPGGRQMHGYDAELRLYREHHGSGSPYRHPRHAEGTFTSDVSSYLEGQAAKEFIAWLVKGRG
Sequence of fusion protein PRG (chain, as listed by the source): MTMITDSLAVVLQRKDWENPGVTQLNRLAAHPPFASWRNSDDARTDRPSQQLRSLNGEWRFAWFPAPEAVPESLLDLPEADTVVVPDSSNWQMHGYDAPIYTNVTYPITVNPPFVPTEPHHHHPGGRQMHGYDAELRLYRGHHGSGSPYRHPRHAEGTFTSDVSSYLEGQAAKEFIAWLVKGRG
Sequence of fusion protein PRF (chain, as listed by the source): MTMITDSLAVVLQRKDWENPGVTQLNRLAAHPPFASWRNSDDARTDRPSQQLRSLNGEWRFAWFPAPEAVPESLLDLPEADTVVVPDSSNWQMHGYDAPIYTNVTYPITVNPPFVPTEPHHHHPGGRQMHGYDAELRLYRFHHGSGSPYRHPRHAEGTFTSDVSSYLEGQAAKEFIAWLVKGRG
Sequence of fusion protein PRH (chain, as listed by the source): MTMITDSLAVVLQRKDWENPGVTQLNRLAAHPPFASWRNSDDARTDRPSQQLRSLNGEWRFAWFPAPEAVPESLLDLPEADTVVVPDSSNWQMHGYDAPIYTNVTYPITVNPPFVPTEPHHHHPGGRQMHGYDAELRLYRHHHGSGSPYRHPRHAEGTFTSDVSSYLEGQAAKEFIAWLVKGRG
Sequence of fusion protein PRL (chain, as listed by the source): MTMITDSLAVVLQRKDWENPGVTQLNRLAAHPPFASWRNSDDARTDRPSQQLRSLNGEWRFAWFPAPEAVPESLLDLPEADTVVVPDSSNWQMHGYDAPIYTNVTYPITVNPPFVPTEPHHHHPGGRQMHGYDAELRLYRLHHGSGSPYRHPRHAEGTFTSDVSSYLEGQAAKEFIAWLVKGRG
Sequence of fusion protein PRT (chain, as listed by the source): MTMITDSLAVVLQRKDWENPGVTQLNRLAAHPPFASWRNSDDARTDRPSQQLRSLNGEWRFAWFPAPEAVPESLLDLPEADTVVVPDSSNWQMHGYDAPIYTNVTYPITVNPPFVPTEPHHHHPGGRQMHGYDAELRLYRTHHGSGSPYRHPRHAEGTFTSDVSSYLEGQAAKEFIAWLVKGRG
Sequence of fusion protein PRS (chain, as listed by the source): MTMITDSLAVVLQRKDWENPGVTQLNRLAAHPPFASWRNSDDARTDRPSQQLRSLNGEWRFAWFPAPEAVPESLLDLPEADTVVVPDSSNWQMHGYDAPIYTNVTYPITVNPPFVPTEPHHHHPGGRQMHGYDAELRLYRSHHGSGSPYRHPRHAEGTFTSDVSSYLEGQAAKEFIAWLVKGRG

| Protein | relative cleavage efficiency (fusion protein PRA) | relative cleavage efficiency (fusion protein PRC) | relative cleavage efficiency (fusion protein PRD) | relative cleavage efficiency (fusion protein PRE) | relative cleavage efficiency (fusion protein PRF) | relative cleavage efficiency (fusion protein PRG) | relative cleavage efficiency (fusion protein PRH) | relative cleavage efficiency (fusion protein PRI) | relative cleavage efficiency (fusion protein PRK) | relative cleavage efficiency (fusion protein PRL) | relative cleavage efficiency (fusion protein PRM) | relative cleavage efficiency (fusion protein PRN) | relative cleavage efficiency (fusion protein PRP) | relative cleavage efficiency (fusion protein PRQ) | relative cleavage efficiency (fusion protein PRR) | relative cleavage efficiency (fusion protein PRS) | relative cleavage efficiency (fusion protein PRT) | relative cleavage efficiency (fusion protein PRW) | relative cleavage efficiency (fusion protein PRY) | further results |
| --- | --- | --- | --- | --- | --- | --- | --- | --- | --- | --- | --- | --- | --- | --- | --- | --- | --- | --- | --- | --- |
| B1 | 7.1% | 3.9% | less than 3% | less than 3% | 4.7% | less than 3% | less than 3% | < 3% | < 3% | less than 3% | < 3% | < 3% | less than 3% | less than 3% | < 3% | 9.1% | < 3% | less than 3% | 3.2% | by-products [1]: No by-products were released by cleavage at other sites; release of human adrenocorticotropic hormone(1-24), against wild-type OmpT protease [1]: released human adrenocorticotropic hormone(1-24) at 2.9 times compared to wild-type OmpT protease |
| B2 | less than 3.0% | less than 3.0% | less than 3.0% | less than 3.0% | less than 3.0% | less than 3.0% | less than 3.0% | less than 3.0% | less than 3.0% | less than 3.0% | less than 3.0% | less than 3.0% | less than 3.0% | less than 3.0% | less than 3.0% | less than 3.0% | less than 3.0% | less than 3.0% | less than 3.0% | – |
| B3 | less than 3.0% | less than 3.0% | less than 3.0% | less than 3.0% | less than 3.0% | less than 3.0% | less than 3.0% | less than 3.0% | less than 3.0% | less than 3.0% | less than 3.0% | less than 3.0% | less than 3.0% | less than 3.0% | less than 3.0% | less than 3.0% | less than 3.0% | less than 3.0% | less than 3.0% | – |
